Among the targets are cp1338; cp1353; cp1340; cp1339; cp1286; cp1292; cp1284; cp1285; cp1342; cp1352.
Holding throughout (assay): BLI
(In general: BLI is a label-free optical method that tracks binding on a fibre tip over time.)

The target in another test is T1, LY6G6D.
T1 chain: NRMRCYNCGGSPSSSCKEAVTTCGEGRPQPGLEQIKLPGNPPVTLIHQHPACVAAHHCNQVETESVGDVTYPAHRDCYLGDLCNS

B1: CB21-499-177 (antibody, V domains shown)
VH: EVQLVESGGGVVQPGRSLRLSCAASGFTFSSYGMHWVRQAPGKGLEWVAVIWYDASNKEYAPSVKGRFTISRDNSKNTLYLQMNSLRAEDTAIYYCARPGEGDYWGQGTLVTVSS
VL: DIQMTQSPSSLSASVGDRVTITCRASQGVRNDFGWFQQKPGKAPKRLIYGASSLQSGVPSRFSGSGSGTEFTLTISSLQPEDFATYYCLQQNSYPWTFGQGTKLEIK
One may read the Kd as the equilibrium constant for the complex coming apart. Molecule B1 registered a Kd with LY6G6D of 0.255 nM.

B2: CB21-499 (antibody, V domains shown)
VH: EVQLVESGGGVVQPGRSLRLSCAASGFTFSSYGMHWVRQAPGKGLEWVAVIWYDGSNKDYADSVKGRFTISRDNSKNTLYLQMNSLRAEDTAIYYCARPGEGDYWGQGTLVTVSS
VL: DIQMTQSPSSLSASVGDRVTITCRASQGVRNDFGWFQQKPGKAPKRLIYGASSLQSGVPSRFSGSGSGTEFTLTISSLQPEDFATYYCLQQNSYPWTFGQGTKLEIK
B2 registered a dissociation constant (Kd) in the test with LY6G6D of 0.337 nM.

B3: cp203 (Fc fusion)
chain: NRMRCYNCGGSPSSSCKEAVTTCGEGRPQPGLEQIKLPGNPPVTLIHQHPACVAAHHCNQVETESVGDVTYPAHRDCYLGDLCNS
modifications: biotinylated for BLI capture (site not stated)
B3: the equilibrium dissociation constant (Kd) was 0.695 nM in the test with cp1338; 21.8 nM with cp1353; 2.52 nM in the test with cp1340; 0.824 nM with cp1339; 1.12 nM with cp1286; 6.97 nM in the test with cp1292. The Kd came to 40.7 nM with cp1284, 1.78 nM in the test with cp1285, 1.73 nM with cp1342 and 1.54 nM with cp1352.

Source of the values: patent US20250361298A1 (published 2025).
